# Source: article PMC3134789
# T1: Nova-1 KH2 (UniProt Q9JKN6 171-237)
# T1 sequence: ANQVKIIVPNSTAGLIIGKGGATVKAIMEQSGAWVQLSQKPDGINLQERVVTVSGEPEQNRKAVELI
# Tests used:
# [1] = biological target: Nova-1 KH2 domain (individual domain); assay: SEC
# [2] = biological target: Nova-1 KH2 domain (individual domain); assay: AUC
# [3] = biological target: T1, Nova-1 KH2; assay: NMR
# Chain of Nova-1 KH2 domain (individual domain) (domain or fragment) (P51513 44-493): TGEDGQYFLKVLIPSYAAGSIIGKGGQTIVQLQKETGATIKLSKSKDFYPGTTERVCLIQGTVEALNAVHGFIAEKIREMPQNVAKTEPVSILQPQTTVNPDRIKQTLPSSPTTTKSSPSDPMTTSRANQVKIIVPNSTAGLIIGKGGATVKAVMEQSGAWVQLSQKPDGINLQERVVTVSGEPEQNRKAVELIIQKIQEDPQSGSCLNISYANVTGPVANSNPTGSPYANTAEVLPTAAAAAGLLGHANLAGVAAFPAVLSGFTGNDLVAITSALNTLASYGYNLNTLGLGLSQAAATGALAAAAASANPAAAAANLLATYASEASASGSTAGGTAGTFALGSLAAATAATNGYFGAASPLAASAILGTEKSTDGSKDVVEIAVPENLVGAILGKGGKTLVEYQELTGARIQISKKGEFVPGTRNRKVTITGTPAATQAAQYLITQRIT
stoichiometry N [1],stoichiometry N [2],Molecule,binding result [3]
2,2,Nova-1 KH2 domain (individual domain) (domain or fragment),
,,UCAC (ssRNA) [UCAC tetranucleotide],binds
